Laboratory results taken from paper PMC6213189, “ABD-Derived Protein Blockers of Human IL-17 Receptor A as Non-IgG Alternatives for Modulation of IL-17-Dependent Pro-Inflammatory Axis” (International Journal of Molecular Sciences, 2018).
Ends that are not written are not given here. TolA = 305-residue helical TolA spacer protein; AVI = AviTag

Target: T1, human IL-17RA on the cell surface (human (endogenous in THP-1 and HaCaT), UniProt Q96F46 33-866)
T1 construct: human IL-17 receptor A, endogenous on the surface of human cell lines; Expression on THP-1 was confirmed with an anti-IL-17RA antibody; also called cell-surface IL-17RA; IL-17RA-expressing THP-1 cells; source: endogenous, on THP-1 cells; endogenous, on HaCaT cells
Assay: LigandTracer Green Line (real-time binding to cells); adherent HaCaT cells on a dish; biotinylated His6-ARS-TolA-AVI added stepwise (3, 30, 90 nM by the results), then dissociation in fresh medium or PBS (ARS043); one-to-one model, TraceDrawer
Conditions: one partner purified

Binder	Kd
His6-LAEAKVLANRELDKYGVSDMYKNVINIAWWVSIVKYPIDCILALLP (designed binder, not fully specified (C-terminus); also: His6-TolA-AviTag fusion, not in given chain, biotin on the AviTag (in vivo biotinylated), ABD-derived variant selected by ribosome display; source: E. coli BL21 (DE3) BirA, purified (Ni-NTA); not shown: His6, N-terminal, kept; TolA spacer protein (305 residues), C-terminal, kept) [His6-ARS019-TolA-AVI]	0.7 nM
His6-LAEAKVLANRELDKYGVSDLYKNMINMALWVTGVKWLIDPILATLP (designed binder, not fully specified (C-terminus); also: His6-TolA-AviTag fusion, not in given chain, biotin on the AviTag (in vivo biotinylated), ABD-derived variant selected by ribosome display; source: E. coli BL21 (DE3) BirA, purified (Ni-NTA); not shown: His6, N-terminal, kept; TolA spacer protein (305 residues), C-terminal, kept) [His6-ARS043-TolA-AVI]	32 nM
His6-LAEAKVLANRELDKYGVSDVYKNLINYAWLVMWVPIDAILALLP-{TolA-AVI} (designed binder, also: biotin on the AviTag (in vivo biotinylated), ABD-derived variant selected by ribosome display; positions 35-36 are deleted; source: E. coli BL21 (DE3) BirA, purified (Ni-NTA); not shown: His6, N-terminal, kept; TolA spacer protein (305 residues), C-terminal, kept) [His6-ARS014-TolA-AVI]	2 nM
His6-LAEAKVLANRELDKYGVSDVYKLINYACPVTWVKWVIDPILAMLP-{TolA-AVI} (designed binder, also: biotin on the AviTag (in vivo biotinylated), ABD-derived variant selected by ribosome display; position 23 is deleted; source: E. coli BL21 (DE3) BirA, purified (Ni-NTA); not shown: His6, N-terminal, kept; TolA spacer protein (305 residues), C-terminal, kept) [His6-ARS004-TolA-AVI]	1.2 nM
His6-LAEAKVLANRELDKYGVSDVYKLINMALYVTGVKPWIDVILAVLP-{TolA-AVI} (designed binder, also: biotin on the AviTag (in vivo biotinylated), ABD-derived variant selected by ribosome display; position 23 is deleted; source: E. coli BL21 (DE3) BirA, purified (Ni-NTA); not shown: His6, N-terminal, kept; TolA spacer protein (305 residues), C-terminal, kept) [His6-ARS012-TolA-AVI]	35 nM
